Test results from patent publication US20150031620.

Assays:
[1] = system: recombinant human TMD23 (wild-type thrombomodulin domains 2 and 3)
[2] = system: mutant rTMD23NA (thrombomodulin domains 2 and 3 with N364A and N391A)
mutant rTMD23NA (thrombomodulin domains 2 and 3 with N364A and N391A), sequence (chain, as listed by the source N364A N391A): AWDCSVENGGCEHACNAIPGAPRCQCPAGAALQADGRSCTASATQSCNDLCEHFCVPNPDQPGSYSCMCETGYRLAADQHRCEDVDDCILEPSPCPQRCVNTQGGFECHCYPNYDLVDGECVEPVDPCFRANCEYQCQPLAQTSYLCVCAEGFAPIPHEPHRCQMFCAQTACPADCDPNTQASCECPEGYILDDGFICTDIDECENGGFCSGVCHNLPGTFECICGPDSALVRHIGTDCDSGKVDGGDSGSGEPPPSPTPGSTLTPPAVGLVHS

recombinant human TMD23 (wild-type thrombomodulin domains 2 and 3), sequence (chain, as listed by the source): as the sequence (chain, as listed by the source N364A N391A) above, with A141N, A168N counted along it

## thrombin
[1]
  thrombin-dependent activation of protein C (hydrolysis of Chromozym PCa, absorbance at 405 nm): only recombinant TMD23 gave rise to thrombin-dependent protein C activation
[2]
  thrombin-dependent activation of protein C (hydrolysis of Chromozym PCa, absorbance at 405 nm): The mutant rTMD23NA lost its cofactor activity in catalyzing thrombin-dependent activation of Protein C
